Patent US20230183349A1

Target: PD1 aglycosylated at Asn58 (human) (UniProt Q15116)
Test: SPR Biacore T200, antibody captured by anti-human IgG, PD1-ECD as analyte, 25 °C, 1:1 Langmuir

Kd: 80.2 nM
koff: 0.027 s⁻¹
kon: 336000 M⁻¹ s⁻¹
B1: PD1-0103-0312 (antibody, V domains shown)
VH: EVQLLESGGGLVQPGGSLRLSCAASGFSFSSYTMSWVRQAPGKGLEWVATISGGGRDIYYPDSVKGRFTISRDNSKNTLYLQMNSLRAEDTAVYYCVLLTGRVYFALDSWGQGTLVTVSS
VL: DIVMTQSPDSLAVSLGERATINCKASESVDTSDNSFIHWYQQKPGQSPKLLIYRSSTLESGVPDRFSGSGSGTDFTLTISSLQAEDVAVYYCQQNYDVPWTFGQGTKVEIK
